Reference: patent publication US20110229461A1 (UCB, published 2011)

B1: 949 VK1 gL9 gH8a (antibody, V domains shown)
VH: EVQLVQSGAEVKKPGASVKVSCKAFGYTFTTYPIEWMRQAHGQGLEWIGNFHPYNDDTKYNEKFKGRVTMTRDTSTSTVYMELSSLRSEDTAVYYCARENYGSHGGFVYWGQGTLVTVS
VL: ENVLTQSPFSLSASVGDRVTITCRASSSVISSYLHWYQQKPAKAPKLFIYSTSNLASGVPSRFSGSGSGTDYTLTISSLQPEDFATYYCQQYNGYPLTFGGGTKVEIK
notes: Humanised; human kappa constant (Km3)
B2: 949 VK1 gL1 gH1a (antibody, V domains shown)
VH: EVQLVQSGAEVKKPGASVKVSCKAFGYTFTTYPIEWMRQAHGQGLEWIGNFHPYNDDTKYNEKFKGRVTMTVDKSTTTVYMELSSLRSEDTAVYYCARENYGSHGGFVYWGQGTLVTVS
VL: ENVLTQSPFSLSASVGDRVTITCRASSSVISSYLHWYQQKPAKAPKLWIYSTSNLASGVPDRFSGSGSGTSYTLTISSLQPEDFATYYCQQYNGYPLTFGGGTKVEIK
notes: Humanised; human kappa constant (Km3); Heavy V regions were cloned into gamma-4P (S241P), gamma-4P delta Lys and gamma-1 delta Lys vectors
B3: 949 VK1 gL1 gH1b (antibody, V domains shown)
VH: EVQLVQSGAEVKKPGSSVKVSCKAFGYTFTTYPIEWMRQAHGQGLEWIGNFHPYNDDTKYNEKFKGRVTITVDKSTTTVYMELSSLRSEDTAVYYCARENYGSHGGFVYWGQGTLVTVS
VL: ENVLTQSPFSLSASVGDRVTITCRASSSVISSYLHWYQQKPAKAPKLWIYSTSNLASGVPDRFSGSGSGTSYTLTISSLQPEDFATYYCQQYNGYPLTFGGGTKVEIK
notes: as for B1
B4: 949 VK1 gL9 gH20a (antibody, V domains shown)
VH: EVQLVQSGAEVKKPGASVKVSCKAFGYTFTTYPIEWVRQAPGQGLEWMGNFHPYNDDTKYNEKFKGRVTMTRDTSTSTVYMELSSLRSEDTAVYYCARENYGSHGGFVYWGQGTLVTVS
VL: ENVLTQSPFSLSASVGDRVTITCRASSSVISSYLHWYQQKPAKAPKLFIYSTSNLASGVPSRFSGSGSGTDYTLTISSLQPEDFATYYCQQYNGYPLTFGGGTKVEIK
notes: as for B1
B5: 949 VK1 gL9 gH20b (antibody, V domains shown)
VH: EVQLVQSGAEVKKPGSSVKVSCKASGYTFTTYPIEWVRQAPGQGLEWMGNFHPYNDDTKYNEKFKGRVTITADKSTSTAYMELSSLRSEDTAVYYCARENYGSHGGFVYWGQGTLVTVS
VL: ENVLTQSPFSLSASVGDRVTITCRASSSVISSYLHWYQQKPAKAPKLFIYSTSNLASGVPSRFSGSGSGTDYTLTISSLQPEDFATYYCQQYNGYPLTFGGGTKVEIK
notes: Humanised; human kappa constant (Km3); also called Transient #1
B6: 949 VK1 gL11 gH1a (antibody, V domains shown)
VH: EVQLVQSGAEVKKPGASVKVSCKAFGYTFTTYPIEWMRQAHGQGLEWIGNFHPYNDDTKYNEKFKGRVTMTVDKSTTTVYMELSSLRSEDTAVYYCARENYGSHGGFVYWGQGTLVTVS
VL: ENVLTQSPFSLSASVGDRVTITCRASSSVISSYLHWYQQKPAKAPKLWIYSTSNLASGVPDRFSGSGSGTSYTLTISSLQPEDFATYYCQQYNSYPLTFGGGTKVEIK
notes: as for B1
B7: 949 VK1 gL12 gH8a (antibody, V domains shown)
VH: EVQLVQSGAEVKKPGASVKVSCKAFGYTFTTYPIEWMRQAHGQGLEWIGNFHPYNDDTKYNEKFKGRVTMTRDTSTSTVYMELSSLRSEDTAVYYCARENYGSHGGFVYWGQGTLVTVS
VL: ENVMTQSPFSLSASVGDRVTITCRASSSVISSYLHWYQQKPAKAPKLFIYSTSNLASGVPSRFSGSGSGTDYTLTISSLQPEDFATYYCQQYNGYPLTFGGGTKVEIK
notes: as for B1
B8: 949 VK1 gL12 gH8b (antibody, V domains shown)
VH: EVQLVQSGAEVKKPGSSVKVSCKAFGYTFTTYPIEWMRQAHGQGLEWIGNFHPYNDDTKYNEKFKGRVTITADKSTSTAYMELSSLRSEDTAVYYCARENYGSHGGFVYWGQGTLVTVS
VL: ENVMTQSPFSLSASVGDRVTITCRASSSVISSYLHWYQQKPAKAPKLFIYSTSNLASGVPSRFSGSGSGTDYTLTISSLQPEDFATYYCQQYNGYPLTFGGGTKVEIK
notes: as for B1
B9: 949 VK1 gL12 gH20a (antibody, V domains shown)
VH: EVQLVQSGAEVKKPGASVKVSCKAFGYTFTTYPIEWVRQAPGQGLEWMGNFHPYNDDTKYNEKFKGRVTMTRDTSTSTVYMELSSLRSEDTAVYYCARENYGSHGGFVYWGQGTLVTVS
VL: ENVMTQSPFSLSASVGDRVTITCRASSSVISSYLHWYQQKPAKAPKLFIYSTSNLASGVPSRFSGSGSGTDYTLTISSLQPEDFATYYCQQYNGYPLTFGGGTKVEIK
notes: as for B1
B10: 949 VK1 gL12 gH20b (antibody, V domains shown)
VH: EVQLVQSGAEVKKPGSSVKVSCKASGYTFTTYPIEWVRQAPGQGLEWMGNFHPYNDDTKYNEKFKGRVTITADKSTSTAYMELSSLRSEDTAVYYCARENYGSHGGFVYWGQGTLVTVS
VL: ENVMTQSPFSLSASVGDRVTITCRASSSVISSYLHWYQQKPAKAPKLFIYSTSNLASGVPSRFSGSGSGTDYTLTISSLQPEDFATYYCQQYNGYPLTFGGGTKVEIK
notes: as for B1
B11: 949 VK1 gL14 gH8a (antibody, V domains shown)
VH: EVQLVQSGAEVKKPGASVKVSCKAFGYTFTTYPIEWMRQAHGQGLEWIGNFHPYNDDTKYNEKFKGRVTMTRDTSTSTVYMELSSLRSEDTAVYYCARENYGSHGGFVYWGQGTLVTVS
VL: ENVMTQSPFSLSASVGDRVTITCRASSSVISSYLHWYQQKPAKAPKLFIYSTSNLASGVPSRFSGSGSGTDYTLTISSLQPEDFATYYCQQYNSYPLTFGGGTKVEIK
notes: as for B1
B12: 949 VK1 gL14 gH8b (antibody, V domains shown)
VH: EVQLVQSGAEVKKPGSSVKVSCKAFGYTFTTYPIEWMRQAHGQGLEWIGNFHPYNDDTKYNEKFKGRVTITADKSTSTAYMELSSLRSEDTAVYYCARENYGSHGGFVYWGQGTLVTVS
VL: ENVMTQSPFSLSASVGDRVTITCRASSSVISSYLHWYQQKPAKAPKLFIYSTSNLASGVPSRFSGSGSGTDYTLTISSLQPEDFATYYCQQYNSYPLTFGGGTKVEIK
notes: as for B1
B13: 949 VK1 gL9 gH8b (antibody, V domains shown)
VH: EVQLVQSGAEVKKPGSSVKVSCKAFGYTFTTYPIEWMRQAHGQGLEWIGNFHPYNDDTKYNEKFKGRVTITADKSTSTAYMELSSLRSEDTAVYYCARENYGSHGGFVYWGQGTLVTVS
VL: ENVLTQSPFSLSASVGDRVTITCRASSSVISSYLHWYQQKPAKAPKLFIYSTSNLASGVPSRFSGSGSGTDYTLTISSLQPEDFATYYCQQYNGYPLTFGGGTKVEIK
notes: as for B1
B14: antibody CA051-00949 (949), parental variable regions, murine IgG1 (antibody, V domains shown)
VH: QVQLQQSGAELVKPGASVKMSCKAFGYTFTTYPIEWMKQNHGKSLEWIGNFHPYNDDTKYNEKFKGKAKLTVEKSSTTVYLELSRLTSDDSAVYYCARENYGSHGGFVYWGQGTLVTVS
VL: ENVLTQSPAIMSASPGEKVTMTCRASSSVISSYLHWYQQKSGASPKLWIYSTSNLASGVPDRFSGSGSGTSYSLTISSVEAEDAATYYCQQYNGYPLTFGAGTKLEIK
notes: also called Clone 19
B15: 949 VK3 gL1 gH1a (antibody, V domains shown)
VH: EVQLVQSGAEVKKPGASVKVSCKAFGYTFTTYPIEWMRQAHGQGLEWIGNFHPYNDDTKYNEKFKGRVTMTVDKSTTTVYMELSSLRSEDTAVYYCARENYGSHGGFVYWGQGTLVTVS
VL: ENVLTQSPGTLSLSPGERATLSCRASSSVISSYLHWYQQKPGQAPRLWIYSTSNLASGVPDRFSGSGSGTSYTLTISRLEPEDFATYYCQQYNGYPLTFGGGTKVEIK
notes: as for B1
B16: 949 VK3 gL1 gH1b (antibody, V domains shown)
VH: EVQLVQSGAEVKKPGSSVKVSCKAFGYTFTTYPIEWMRQAHGQGLEWIGNFHPYNDDTKYNEKFKGRVTITVDKSTTTVYMELSSLRSEDTAVYYCARENYGSHGGFVYWGQGTLVTVS
VL: ENVLTQSPGTLSLSPGERATLSCRASSSVISSYLHWYQQKPGQAPRLWIYSTSNLASGVPDRFSGSGSGTSYTLTISRLEPEDFATYYCQQYNGYPLTFGGGTKVEIK
notes: as for B1
B17: 949 VK3 gL11 gH1a (antibody, V domains shown)
VH: EVQLVQSGAEVKKPGASVKVSCKAFGYTFTTYPIEWMRQAHGQGLEWIGNFHPYNDDTKYNEKFKGRVTMTVDKSTTTVYMELSSLRSEDTAVYYCARENYGSHGGFVYWGQGTLVTVS
VL: ENVLTQSPGTLSLSPGERATLSCRASSSVISSYLHWYQQKPGQAPRLWIYSTSNLASGVPDRFSGSGSGTSYTLTISRLEPEDFATYYCQQYNSYPLTFGGGTKVEIK
notes: as for B1
B18: 949 VK1 gL15 gH8a (antibody, V domains shown)
VH: EVQLVQSGAEVKKPGASVKVSCKAFGYTFTTYPIEWMRQAHGQGLEWIGNFHPYNDDTKYNEKFKGRVTMTRDTSTSTVYMELSSLRSEDTAVYYCARENYGSHGGFVYWGQGTLVTVS
VL: ENVLTQSPFSLSASVGDRVTITCRASSSVISSYLHWYQQKPAKAPKLFIYSTSNLASGVPSRFSGSGSGTDYTLTISSLQPEDFATYYCQQYNSYPLTFGGGTKVEIK
notes: Humanised; human kappa constant (Km3); also called Transient #2
B19: 949 VK1 gL15 gH8b (antibody, V domains shown)
VH: EVQLVQSGAEVKKPGSSVKVSCKAFGYTFTTYPIEWMRQAHGQGLEWIGNFHPYNDDTKYNEKFKGRVTITADKSTSTAYMELSSLRSEDTAVYYCARENYGSHGGFVYWGQGTLVTVS
VL: ENVLTQSPFSLSASVGDRVTITCRASSSVISSYLHWYQQKPAKAPKLFIYSTSNLASGVPSRFSGSGSGTDYTLTISSLQPEDFATYYCQQYNSYPLTFGGGTKVEIK
notes: Humanised; human kappa constant (Km3); also called Transient #3
B20: 949 VK1 gL15 gH20a (antibody, V domains shown)
VH: EVQLVQSGAEVKKPGASVKVSCKAFGYTFTTYPIEWVRQAPGQGLEWMGNFHPYNDDTKYNEKFKGRVTMTRDTSTSTVYMELSSLRSEDTAVYYCARENYGSHGGFVYWGQGTLVTVS
VL: ENVLTQSPFSLSASVGDRVTITCRASSSVISSYLHWYQQKPAKAPKLFIYSTSNLASGVPSRFSGSGSGTDYTLTISSLQPEDFATYYCQQYNSYPLTFGGGTKVEIK
notes: Humanised; human kappa constant (Km3); also called Transient #4
B21: 949 VK1 gL15 gH20b (antibody, V domains shown)
VH: EVQLVQSGAEVKKPGSSVKVSCKASGYTFTTYPIEWVRQAPGQGLEWMGNFHPYNDDTKYNEKFKGRVTITADKSTSTAYMELSSLRSEDTAVYYCARENYGSHGGFVYWGQGTLVTVS
VL: ENVLTQSPFSLSASVGDRVTITCRASSSVISSYLHWYQQKPAKAPKLFIYSTSNLASGVPSRFSGSGSGTDYTLTISSLQPEDFATYYCQQYNSYPLTFGGGTKVEIK
notes: Humanised; also called Transient #5

Biological target: T1, human PD-1 (recombinant, titrated in BIAcore) (human, UniProt Q15116 25-170)
T1 construct: extracellular domain; also called recombinant human PD-1 extracellular domain
Assay: SPR BIAcore 3000; antibody captured by anti-human Fc, human PD-1 titrated;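 further: CM5 chip with amine-coupled goat anti-human Fc F(ab′)₂, HBS-EP running buffer at 10 µL/min, blank-surface-subtracted sensorgrams fitted in BIAevaluation 3.2 for kinetic constants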

T1 sequence (Q15116 25-170): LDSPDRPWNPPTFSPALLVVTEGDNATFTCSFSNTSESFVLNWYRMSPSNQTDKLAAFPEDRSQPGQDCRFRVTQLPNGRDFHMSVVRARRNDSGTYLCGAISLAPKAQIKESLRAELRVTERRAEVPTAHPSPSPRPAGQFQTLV

Point of comparison: B7, Kd 2.46 nM. Against it:
- B1 — within 1.5-fold, 2.35 nM
- B2 — 1.5-fold higher, 3.71 nM
- B3 — within 1.5-fold, 2.92 nM
- B4 — within 1.5-fold, 3.17 nM
- B5 — within 1.5-fold, 2.66 nM
- B6 — 2.3-fold higher, 5.54 nM
- B8 — within 1.5-fold, 2.77 nM
- B9 — within 1.5-fold, 3.38 nM
- B10 — 1.5-fold higher, 3.8 nM
- B11 — 1.9-fold higher, 4.75 nM
- B12 — 1.8-fold higher, 4.38 nM
- B13 — within 1.5-fold, 2.34 nM
- B14 — 2.1-fold higher, 5.07 nM
- B15 — 1.6-fold higher, 4.02 nM
- B16 — within 1.5-fold, 3.14 nM
- B17 — 2-fold higher, 4.89 nM

Point of comparison: B2, koff 0.000782 s⁻¹. Against it:
- B3 — within 1.5-fold, 0.000556 s⁻¹
- B6 — within 1.5-fold, 0.00115 s⁻¹
- B15 — within 1.5-fold, 0.000844 s⁻¹
- B16 — within 1.5-fold, 0.00065 s⁻¹
- B17 — within 1.5-fold, 0.00109 s⁻¹

Point of comparison: B3, kon 191000 M⁻¹ s⁻¹. Against it:
- B2 — within 1.5-fold, 211000 M⁻¹ s⁻¹
- B6 — within 1.5-fold, 207000 M⁻¹ s⁻¹
- B15 — within 1.5-fold, 210000 M⁻¹ s⁻¹
- B16 — within 1.5-fold, 207000 M⁻¹ s⁻¹
- B17 — within 1.5-fold, 223000 M⁻¹ s⁻¹

Biological target: T2, human PD-1 on cells (transfected HEK293 cells; human T cells) (human, UniProt Q15116 25-288)
T2 construct: whole, on cells; HEK293 cells transiently transfected with human PD-1 DNA; also called PD-1 expressing HEK293 cells; PD-1 transfected HEK cells
Assay: flow cytometry on activated human T cells

T2 sequence (Q15116 25-288): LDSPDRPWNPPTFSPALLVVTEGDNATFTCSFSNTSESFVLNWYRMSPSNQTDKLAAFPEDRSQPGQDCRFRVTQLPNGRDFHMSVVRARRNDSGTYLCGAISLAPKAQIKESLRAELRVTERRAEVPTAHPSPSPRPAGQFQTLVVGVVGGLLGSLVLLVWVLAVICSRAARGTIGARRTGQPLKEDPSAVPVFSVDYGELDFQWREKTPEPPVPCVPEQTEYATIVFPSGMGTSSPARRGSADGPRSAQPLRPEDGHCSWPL

Point of comparison: B18, EC50 3.15 µg/mL. Against it:
- B5 — 2.8-fold lower, 1.14 µg/mL
- B19 — 1.9-fold higher, 6.09 µg/mL
- B20 — within 1.5-fold, 2.89 µg/mL
- B21 — within 1.5-fold, 4.1 µg/mL
